Test results reported in patent US20250051443A1 (NATIONAL RESEARCH COUNCIL OF CANADA, published 2025).

B1: F332-7E3 (antibody, mouse IgG2a, V domains shown)
VH: QVQLQQPGAELGKPGTSVKLSCKASGYTFTSYWIHWVKQRPGQGLEWIGNINPNSGSINYNEKFKSKATLTVDKSSSTAYMQLSTLTSEDFAVYYCTRDTSGQYYFDYWGQGTTLTVSS
VL: DIVMSQSPSSLAVSAGEKVTMSCKSSQSLLNSRTRKNYLAWYQQKPGQSPKLLIYWASTRESGVPDRFTGSGSGTDFTLTISSVQAEDLAVYYCKQSYHLRTFGGGTKLEIK
notes: also called F332-7E3-2
B2: F332-5D4 (antibody, mouse IgG2b, V domains shown)
VH: QVQLQQPGAELGKPGTSVKLSCKASGYTFTSYWMHWVKQRPGQGLEWIGNINPNGGDSNYNEKFKSKATLTVDMSSSTAYMQLSTLTSEDSAVYYCTRDISGQYYFDFWGQGTSLTVFS
VL: DILMSQSPSSLAVSAGEQVTMSCKSSQSLLNSRTRKNYLAWYQQKPGQSPKLLIFWASTRKSGVPDRFTGSGSGTYFTLTINSVQTEDLAVYYCTQSYSLRTFGGGTKLEIK
notes: also called F332-5D4-2; F332-5D4 (5F8)
B3: F332-12F6 (antibody, mouse IgG2a, V domains shown)
VH: QVQLQQPGAELGKPGTSVKLSCKASGYTFTSYWIHWVKQRPGQGLEWIGNINPNSGSTNYNEKFKSKATLTVDKSSSTAYMQLSTLTSEDSAVYYCTRDISGQYYFDYWGQGTTLTVSS
VL: DIVMSQSPSSLAVSAGEKVTMSCKSSQSLLNSRTRKSYLAWYQQKPGQSPKLLIYWASTRESGVPDRFTGSGSGTDFTLTISSVQAEDLAVYYCIQSYNLRTFGGGTKLEIK
notes: also called F332-12F6-2
B4: F332-7B7 (antibody, mouse IgG2a, V domains shown)
VH: QVQLQQPGTELGKPGTSVKLSCKASGYTFTNYWMHWVKQRPGQGLEWIGNINPNSGSTNYNQKFKSKATLTLDKSSSTAYMQFSTLTSEDSAVYYCTRDSSGQYYFDYWGQGTTLTVSS
VL: DIVMSQSPSSLAVSAGEKVTMSCKSSQSLLNSRTRKNYLAWYQQKPGQSPKLLIYWASTRESGVPDRFTGSGSGTDFTLTISSVQAEDLAVYYCIQSFHLRTFGGGTKLEIK
notes: also called F332-7B7-2
B5: F332-8F7 (antibody, mouse IgG2a, V domains shown)
VH: QVQLQQPGAELGKPGTSVKLSCKASGYTFTSYWIHWVKQRPGQGLEWIGNINPNSGSTNYNEKFKNKATLTVDKSSSTASMQLSTLTSEDSAVYYCTRDISGQYYFDYWGQGTTLTVSS
VL: DIVMSQSPSSLAVSTGGEVTMSCKSSQSLLNSRTRKNYLAWYQQKPGQSPKLLIYWASTRESGVPDRFTGSGSGTDFTLTISSVQAEDLAVYYCIQSYSLRTFGGGTKLGIK
notes: also called F332-8F7-3

Experiments:
[1] = biological target: T1, human CD3 (human, UniProt P07766 23-207; P09693 23-182; P04234 22-171); assay: cell-based or functional assay
[2] = biological target: T1, human CD3; assay: flow cytometry, hybridoma supernatant on CD3+ Jurkat cells
Description: Cells were stained with either negative control mouse IgG (Jackson Immunoresearch cat #115-000-003) or an anti-GFP 3E6 mAb supernatant or tested hybridoma supernatant. Specific binding was reflected by the increase in the mean fluorescent intensity of antibody binding to Jurkat T-cells (FIGS. 1A to 1F, grey histograms) compared to the Jurkat CD3 negative cell line J.RT3-T3.5 (FIGS. 1A to 1F, open histograms). AF488 labeled positive control mAb OKT3 was also analyzed.

[3] = biological target: T1, human CD3; assay: apparent KD (KDapp), flow cytometry titration on Jurkat cells
Description: Unless otherwise stated, all media are kept are 4° C. and all incubations are performed on wet ice. Exponentially growing Jurkat cells were centrifuged and resuspended in complete medium at a cell density of 2×10⁶ cells/mL. Fifty μL/well of cells were distributed in a polypropylene v-bottom 96 well plate and serial 1/3 dilutions of purified mAbs starting at 300 nM were added and incubated for 2 hours. Cells were washed twice by centrifugation and further incubated with a FITC labeled F(ab′)2 goat anti-mouse antibody (Fc specific, #115-096-071, Jackson Immunoresearch, Cedarlane, Burlington, ON) for an hour. Cells were washed and re-suspended in medium containing Propidium iodide to exclude dead cells from analysis. Samples were filtered through a 60 μm nylon mesh filter plate (Millipore, Ireland) to remove cell aggregates. Flow cytometry analyses were performed on 2,000 viable single-cells events gated on forward scattering, side scattering parameters and propidium iodide dye exclusion using a BD-LSRFortessa flow cytometer (Becton-Dickinson Biosciences, CA, USA) and a standard filter set using BD FACSDiva™ acquisition software, according to manufacturer's instructions.

[4] = biological target: T2, Cynomolgus CD3 (Cynomolgus, UniProt Q95LI5 22-198; Q95LI7 23-181; Q95LI8 22-171); assay: apparent KD (KDapp), flow cytometry titration on cynomolgus HSC-F T cell line
T2 construct: whole, on cells; also called CD3 on Cynomolgus PBMCs; CD3 on HSC-F Cynomolgus T cell line
T2 sequence (Q95LI5 22-198, chain 1 of 3): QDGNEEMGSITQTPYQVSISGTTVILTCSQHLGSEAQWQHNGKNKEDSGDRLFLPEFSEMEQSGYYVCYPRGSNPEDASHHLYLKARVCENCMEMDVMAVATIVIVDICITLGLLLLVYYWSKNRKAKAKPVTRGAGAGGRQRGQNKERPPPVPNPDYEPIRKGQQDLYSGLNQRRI
T2 sequence (Q95LI7 23-181, chain 2 of 3): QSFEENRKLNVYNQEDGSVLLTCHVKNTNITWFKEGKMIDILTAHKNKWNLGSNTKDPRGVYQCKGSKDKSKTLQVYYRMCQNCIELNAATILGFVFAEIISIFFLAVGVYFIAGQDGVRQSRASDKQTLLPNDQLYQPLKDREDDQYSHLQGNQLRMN
T2 sequence (Q95LI8 22-171, chain 3 of 3): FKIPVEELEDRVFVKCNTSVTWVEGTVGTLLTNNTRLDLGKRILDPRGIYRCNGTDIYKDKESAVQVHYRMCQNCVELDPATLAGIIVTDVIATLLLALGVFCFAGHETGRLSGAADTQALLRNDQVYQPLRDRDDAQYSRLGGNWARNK
Description: To characterize potential cross-reactivity of the anti-human CD3 mAbs to NHP T cells, dose response flow cytometry titration studies were performed on both freshly obtained Cynomolgus PBMCs (Comparative Medicine and Animal Resources Centre—McGill University) or the Cynomolgus derived T cell line, HSC-F (Non-Human Primate Reagent Resource—NIH). Binding studies on fresh Cynomolgus PBMCs was performed on a subset of anti-CD3 mAbs (FIG. 4) whereas the Herpesvirus saimiri immortalized Cynomolgus T cell line HSC-F was employed for further evaluations (FIGS. 5A to 5C). KDapp values were calculated using a non-linear regression model of one-site binding with Hill slope (GraphPad Prism) and tabulated (Table 3b). Similar KDapp values for anti-CD3 mAb 1E2 obtained from binding to fresh Cynomolgus PBMCs (KDapp=0.28 nM) or the HSC-F T cell line (KDapp=0.39 nM) indicated the HSC-F cell line was a suitable surrogate for ex vivo NHP T cells.
HSC-F T cells obtained from the Non-Human Primate Reagent Resource (NIH) were maintained in culture in RPMI media containing 20% FBS and 40 IU/mL recombinant human IL2. 100K HSC-F cells in logarithmic cell growth were treated with graded doses of the anti-CD3 mAbs starting at 100 nM in staining buffer (SB; PBS/1% BSA/0.01% NaN3) for 2 hours at 4° C. in 96 w V-bottom plates. Following plate washing with SB, the cell pellets were resuspended with 25 μL of goat (Fab′)₂ anti-mouse IgG (H+L)− APC secondary antibody (final 5 μg/mL), incubated for 30 minutes at 4° C., followed by flow cytometry analysis. The commercial NHP cross-reactive SP34.2 anti-CD3 mAb (BD Biosciences), recombinant anti-human OKT-3 IgG2b (in house produced) and non-specific mIgG were employed as controls. 20K live events were acquired on a BD LSRFortessa flow analyzer and mean fluorescence intensities (MFI) calculated after subtraction of secondary antibody alone values. Using GraphPad Prism software, the data were analyzed using a one site specific binding with Hill slope non-linear regression model to calculate KDapp and BMax values (See Table 2).

[5] = biological target: T1, human CD3; assay: flow competition on Jurkat, 100 nM unlabeled mAb; competitor AF488-SK7 1.5 nM
Description: (§1) In order to evaluate whether anti-CD3 monoclonal antibodies bind to the same epitope region, flow cytometry competition experiments on Jurkat cells were performed.
(§2) To that effect, a fixed concentration of the indicated AF488-labeled mAb were incubated with 100 nM of unlabeled monoclonal antibodies to assess if their binding capacity was impaired in presence of unlabeled mAbs. […] The AF488-OKT3 mIgG2b was labeled in-house using AlexaFluor488 protein labelling kit (Invitrogen #A10235) following manufacturer's instruction. The free dye removal step was done using Zeba™ Spin Desalting Columns, 7K MWCO (Thermo Scientific #89890). The final product was analyzed by UPLC-SEC to ensure the integrity of the labeled mAb.

[6] = biological target: T1, human CD3; assay: flow competition on Jurkat, 100 nM unlabeled mAb; competitor AF488-UCHT1 5 nM
Description: as §1, §2

[7] = biological target: T1, human CD3; assay: apparent KD (KDapp), flow cytometry titration on purified primary human T cells
Description: The binding characteristics of the purified anti-CD3 mAbs were assessed in titration studies on purified human primary T cells from different donor samples. Fresh ex vivo peripheral blood mononuclear cells (PBMCs) were obtained via density centrifugation over Ficoll-Paque using standard procedures and untouched T cell fractions obtained from PBMCs by negative pan-T cell selection and magnetic cell sorting. Starting from 300 nM concentrations of the anti-CD3 mAbs, eight point binding curves were generated from the resultant mean fluorescence intensity (MFI) values obtained through detection of labelled secondary antibody to bound CD3 in flow cytometry experiments (FIGS. 3A and 3B). Both commercial mouse anti-human CD3 mAb (OKT-3; Biolegend) and an in house generated IgG1 version of OKT-3 were employed as positive controls together with a non-specific mouse IgG serving as a negative binding control. Following curve fit analysis using one-site specific binding with Hill slope, the KDapp (concentration needed to achieve a half-maximum binding at equilibrium) for each mAb was calculated (Table 2).
Eight point binding titrations were performed with the anti-CD3 mAbs starting at either 300 or 100 nM on freshly purified human T cells obtained through negative selection from PBMC fractions. Briefly, 1×10⁵ human T cells (50 μL of staining buffer (SB; PBS/1% BSA/0.01% NaN3) were incubated with graded dilutions of the anti-CD3 mAbs in SB ([…]) for 2 hours at 4° C. in 96 w U-bottom plates, followed by plate washing with SB ([…]). Cell pellets were resuspended with 25 μL of a 0.25 mg/mL solution of the goat (Fab′)₂ anti-mouse IgG (H+L)− APC secondary antibody in SB, incubated at 4° C. (30 min.), washed 1× with SB, and resuspended for flow analysis. Recombinant anti-human OKT-3 IgG2b (in house produced) and non-specific mIgG were employed similarly as positive and negative controls respectively. 10K live events were acquired on a BD LSRFortessa flow analyzer and mean fluorescence intensities (MFI) calculated after subtraction of secondary antibody alone values. Using GraphPad Prism software, the data were analyzed using a one site specific binding with Hill slope non-linear regression model to calculate KDapp and BMax values (See Table 2).

[8] = biological target: T1, human CD3; assay: flow competition on Jurkat, 100 nM unlabeled mAb; competitor AF488-SP34.2 20 nM
Description: as §1, §2

[9] = biological target: T1, human CD3; assay: flow competition on Jurkat, 100 nM unlabeled mAb; competitor AF488-OKT-3 mIgG2b 1.5 nM
Description: as §1, §2

Binder	% max ref. OKT3 (dTomato activation) [1] [%]	EC50 of dTomato induction (CD69 promoter), Jurkat-CD69-dTomato cells, 24 h [1] [µg/mL]	MFI [2] [MFI]	Kd [3] [pM]	Kd [4] [pM]	% residual fluorescence of labeled mAb [5] [%]	% residual fluorescence of labeled mAb [6] [%]	Kd [7] [pM]	% residual fluorescence of labeled mAb [8] [%]	% residual fluorescence of labeled mAb [9] [%]
B1	75	0.24	354	1300	310	45	67	220	12	79
B2	109	0.27	326	700	640	49	73	610	10	93
B3	87	0.25	369	600	610	42	63	200	7	82
B4	97	0.25	302	600	280	53	79	230	9	86
B5	80	0.22	312	800	970	39	59	260	10	87
